Assay results as given in PMC4335062, “Data-Driven Prediction and Design of bZIP Coiled-Coil Interactions” (PLoS Computational Biology, 2015).
Where “and” joins values, the source holds several entries; their conditions need not be identical. Equal entries are not always repeated. Where no end group is shown, it is not given here.

T1: ATF4 (Homo sapiens, UniProt P18848)
T1 construct: made in house
T1 sequence (P18848 278-341 limits assumed): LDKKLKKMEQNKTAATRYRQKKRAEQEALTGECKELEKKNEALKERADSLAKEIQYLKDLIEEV


Tests used:
ATF4 = biological target: T1, ATF4; test: Competition binding assay, unlabeled design vs FITC-labeled design and TAMRA-labeled ATF4; conditions: unlabeled design mixed with FITC-labeled design and TAMRA-labeled ATF4
Procedure: In the competition form of the assay, a FRET pair was made by mixing 10 nM of the donor-labeled peptide with a specified concentration of the acceptor-labeled peptide in 1 mM TCEP-HCl, and 20 μL of this solution was added to the wells after unlabeled design was titrated in 2-fold dilutions over the wells to a final concentration ranging from 0 to 2.5 μM. The amount of acceptor used varied for each curve, taking into account the Kd of the FRET complex in order to obtain a good lower baseline for fitting purposes. Samples were equilibrated for one hour before reading the plates; repeated reading of the plates over several hours gave no change in signal.
For the competition experiments, the IC50 was determined in MATLAB by fitting the binding data to the equation signal=a+b−a/(1+x/c)^H , where a and b are the lower and upper baselines, c is the IC50 value, x is the inhibitor concentration, and the Hill coefficient H was set to 1. Ki values were calculated as in Fu et al..

ATF4 (human) [1] = biological target: ATF4 (human) (UniProt P18848); test: FRET or BRET; direct-binding FRET in 384-well plates; rhodamine-labelled design (acceptor) titrated 0 to 1 uM into 10 nM fluorescein-labelled bZIP (donor); 150 mM KCl, 50 mM potassium phosphate pH 7.4, 0.1% Tween-20, 0.1% BSA; 37 °C
ATF5 (human) = ATF5 (human) (UniProt Q9Y2D1); test: FRET or BRET; direct-binding FRET in 384-well plates; rhodamine-labelled design (acceptor) titrated 0 to 1 uM into 10 nM fluorescein-labelled bZIP (donor); 150 mM KCl, 50 mM potassium phosphate pH 7.4, 0.1% Tween-20, 0.1% BSA; 4 °C
ATF2 (human) = ATF2 (human) (UniProt P15336); test: as above
ATF4 (human) [2] = biological target: ATF4 (human) (UniProt P18848); test: as above
NFE2L1 [3] = biological target: T2, NFE2L1 (Homo sapiens, UniProt Q14494); test: as above
[4] = biological target: the molecule itself; test: FRET or BRET; direct-binding FRET of the designed peptide with itself (row 'homodimer'; dimer to monomers); acceptor-labelled design titrated into donor-labelled design by note 1 of the tables; 37 °C
[5] = biological target: the molecule itself; test: FRET or BRET; direct-binding FRET of the designed peptide with itself (row 'homodimer'; dimer to monomers); acceptor-labelled design titrated into donor-labelled design by note 1 of the tables; 4 °C
MAFB = MAFB (Homo sapiens, UniProt Q9Y5Q3); test: FRET or BRET; direct-binding FRET in 384-well plates; rhodamine-labelled design (acceptor) titrated 0 to 1 uM into 10 nM fluorescein-labelled bZIP (donor); 150 mM KCl, 50 mM potassium phosphate pH 7.4, 0.1% Tween-20, 0.1% BSA; 23 °C
ATF6B = ATF6B (Homo sapiens, UniProt Q99941); test: as above
NFE2L3 (human) = NFE2L3 (human) (UniProt Q9Y4A8); test: as above
NFE2 (human) [6] = biological target: NFE2 (human) (UniProt Q16621); test: as above
MAFF (human) = MAFF (human) (UniProt Q9ULX9); test: as above
ATF4 (human) [7] = biological target: ATF4 (human) (UniProt P18848); test: as above
NFE2 (human) [8] = biological target: NFE2 (human) (UniProt Q16621); test: FRET or BRET; direct-binding FRET in 384-well plates; rhodamine-labelled design (acceptor) titrated 0 to 1 uM into 10 nM fluorescein-labelled bZIP (donor); 150 mM KCl, 50 mM potassium phosphate pH 7.4, 0.1% Tween-20, 0.1% BSA; 37 °C
NFE2L1 [9] = biological target: T2, NFE2L1; test: FRET or BRET; direct-binding FRET in 384-well plates; rhodamine-labelled design (acceptor) titrated 0 to 1 uM into 10 nM fluorescein-labelled bZIP (donor); 150 mM KCl, 50 mM potassium phosphate pH 7.4, 0.1% Tween-20, 0.1% BSA; 23 °C

Sequence of ATF4 (human) (P18848 whole entry): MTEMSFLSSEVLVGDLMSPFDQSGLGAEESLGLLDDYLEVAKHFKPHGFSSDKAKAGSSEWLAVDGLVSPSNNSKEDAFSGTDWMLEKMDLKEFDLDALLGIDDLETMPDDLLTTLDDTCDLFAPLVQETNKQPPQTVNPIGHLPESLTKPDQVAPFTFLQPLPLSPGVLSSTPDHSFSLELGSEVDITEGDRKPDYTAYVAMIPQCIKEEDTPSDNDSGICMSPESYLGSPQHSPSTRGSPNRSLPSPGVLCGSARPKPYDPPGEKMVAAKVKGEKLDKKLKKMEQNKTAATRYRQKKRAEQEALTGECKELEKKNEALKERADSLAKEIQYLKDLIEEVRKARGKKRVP
T2 sequence (Q14494 whole entry): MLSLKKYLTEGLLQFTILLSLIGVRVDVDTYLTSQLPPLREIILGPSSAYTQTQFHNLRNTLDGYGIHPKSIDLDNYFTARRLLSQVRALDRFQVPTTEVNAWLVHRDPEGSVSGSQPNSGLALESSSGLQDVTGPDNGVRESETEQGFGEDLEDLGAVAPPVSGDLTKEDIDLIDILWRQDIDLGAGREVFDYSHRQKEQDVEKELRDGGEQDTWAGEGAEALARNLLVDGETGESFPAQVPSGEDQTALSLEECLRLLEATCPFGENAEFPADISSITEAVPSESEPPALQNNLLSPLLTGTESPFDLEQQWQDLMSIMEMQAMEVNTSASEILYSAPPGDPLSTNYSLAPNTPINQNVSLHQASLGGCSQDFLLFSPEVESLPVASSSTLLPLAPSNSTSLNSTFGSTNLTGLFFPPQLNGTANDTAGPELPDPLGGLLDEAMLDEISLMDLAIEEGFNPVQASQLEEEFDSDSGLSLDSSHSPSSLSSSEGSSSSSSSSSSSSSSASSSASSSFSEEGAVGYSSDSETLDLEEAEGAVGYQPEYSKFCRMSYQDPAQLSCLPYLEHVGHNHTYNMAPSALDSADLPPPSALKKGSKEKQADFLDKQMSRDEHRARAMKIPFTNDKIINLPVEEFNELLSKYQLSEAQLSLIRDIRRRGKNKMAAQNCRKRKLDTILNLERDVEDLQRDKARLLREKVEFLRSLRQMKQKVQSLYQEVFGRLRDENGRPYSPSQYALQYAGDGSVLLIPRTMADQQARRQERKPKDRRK
Sequence of ATF5 (human) (Q9Y2D1 whole entry): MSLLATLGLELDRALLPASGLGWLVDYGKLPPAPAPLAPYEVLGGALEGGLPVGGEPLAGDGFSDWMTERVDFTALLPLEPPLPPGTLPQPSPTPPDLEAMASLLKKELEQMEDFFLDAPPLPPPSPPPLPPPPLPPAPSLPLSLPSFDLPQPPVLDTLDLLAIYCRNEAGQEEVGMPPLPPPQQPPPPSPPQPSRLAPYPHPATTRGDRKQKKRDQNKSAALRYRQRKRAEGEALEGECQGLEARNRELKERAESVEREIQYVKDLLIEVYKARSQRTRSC
Sequence of NFE2 (human) (Q16621 whole entry): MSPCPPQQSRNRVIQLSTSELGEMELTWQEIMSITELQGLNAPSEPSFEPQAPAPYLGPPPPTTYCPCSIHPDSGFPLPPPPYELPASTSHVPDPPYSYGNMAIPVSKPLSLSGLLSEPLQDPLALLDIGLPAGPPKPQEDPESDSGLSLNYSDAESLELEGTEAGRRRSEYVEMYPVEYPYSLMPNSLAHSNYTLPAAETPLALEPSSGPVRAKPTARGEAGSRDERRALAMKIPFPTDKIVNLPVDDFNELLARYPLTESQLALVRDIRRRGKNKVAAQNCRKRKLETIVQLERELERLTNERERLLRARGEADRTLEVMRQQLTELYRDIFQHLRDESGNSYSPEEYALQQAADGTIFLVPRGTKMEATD
Sequence of MAFF (human) (Q9ULX9 whole entry): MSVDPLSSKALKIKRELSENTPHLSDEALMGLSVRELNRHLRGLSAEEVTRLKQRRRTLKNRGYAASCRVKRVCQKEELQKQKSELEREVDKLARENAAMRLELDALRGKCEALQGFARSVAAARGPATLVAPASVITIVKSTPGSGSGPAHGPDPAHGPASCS
Sequence of ATF2 (human) (P15336 whole entry): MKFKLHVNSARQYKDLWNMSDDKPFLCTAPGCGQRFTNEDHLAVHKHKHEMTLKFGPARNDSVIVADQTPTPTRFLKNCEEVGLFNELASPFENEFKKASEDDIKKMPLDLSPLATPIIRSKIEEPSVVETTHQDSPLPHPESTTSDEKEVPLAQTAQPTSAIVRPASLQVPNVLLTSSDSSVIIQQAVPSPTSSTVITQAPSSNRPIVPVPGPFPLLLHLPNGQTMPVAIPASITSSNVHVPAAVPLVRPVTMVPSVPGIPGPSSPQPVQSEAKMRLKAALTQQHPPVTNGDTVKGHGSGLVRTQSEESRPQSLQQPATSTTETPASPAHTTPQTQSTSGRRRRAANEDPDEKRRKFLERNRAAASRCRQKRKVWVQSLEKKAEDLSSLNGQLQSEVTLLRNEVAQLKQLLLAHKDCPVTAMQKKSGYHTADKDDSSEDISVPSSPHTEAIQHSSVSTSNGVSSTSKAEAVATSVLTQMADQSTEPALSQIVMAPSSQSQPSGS
Sequence of ATF6B (Q99941 whole entry): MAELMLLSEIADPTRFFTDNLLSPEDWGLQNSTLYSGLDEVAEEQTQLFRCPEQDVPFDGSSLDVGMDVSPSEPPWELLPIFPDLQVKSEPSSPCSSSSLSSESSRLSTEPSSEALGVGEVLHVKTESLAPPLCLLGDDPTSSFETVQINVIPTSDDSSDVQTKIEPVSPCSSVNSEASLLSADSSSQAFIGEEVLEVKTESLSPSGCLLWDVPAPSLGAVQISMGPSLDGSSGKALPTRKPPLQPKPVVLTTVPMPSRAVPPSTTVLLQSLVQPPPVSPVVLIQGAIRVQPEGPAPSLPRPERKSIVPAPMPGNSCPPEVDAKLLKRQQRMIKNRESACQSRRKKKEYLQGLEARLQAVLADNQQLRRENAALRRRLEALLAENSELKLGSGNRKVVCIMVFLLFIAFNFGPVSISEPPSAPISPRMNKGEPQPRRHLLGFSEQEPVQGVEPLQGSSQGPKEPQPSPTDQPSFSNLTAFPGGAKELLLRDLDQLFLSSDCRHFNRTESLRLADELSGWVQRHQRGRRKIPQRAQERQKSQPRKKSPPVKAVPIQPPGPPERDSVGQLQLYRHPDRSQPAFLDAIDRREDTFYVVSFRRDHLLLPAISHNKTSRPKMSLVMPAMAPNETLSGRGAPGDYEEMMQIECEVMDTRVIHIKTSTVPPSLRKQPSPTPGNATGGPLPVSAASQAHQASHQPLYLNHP
Sequence of MAFB (Q9Y5Q3 whole entry): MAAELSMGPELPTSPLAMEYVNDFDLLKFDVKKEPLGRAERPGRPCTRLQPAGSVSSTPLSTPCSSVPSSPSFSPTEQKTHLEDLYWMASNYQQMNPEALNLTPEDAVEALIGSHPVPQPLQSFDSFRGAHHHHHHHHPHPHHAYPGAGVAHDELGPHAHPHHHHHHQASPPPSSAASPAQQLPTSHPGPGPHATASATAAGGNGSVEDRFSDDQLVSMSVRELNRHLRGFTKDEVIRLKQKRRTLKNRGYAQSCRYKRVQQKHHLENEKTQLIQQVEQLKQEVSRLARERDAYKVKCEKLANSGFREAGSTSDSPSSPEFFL
Sequence of NFE2L3 (human) (Q9Y4A8 whole entry): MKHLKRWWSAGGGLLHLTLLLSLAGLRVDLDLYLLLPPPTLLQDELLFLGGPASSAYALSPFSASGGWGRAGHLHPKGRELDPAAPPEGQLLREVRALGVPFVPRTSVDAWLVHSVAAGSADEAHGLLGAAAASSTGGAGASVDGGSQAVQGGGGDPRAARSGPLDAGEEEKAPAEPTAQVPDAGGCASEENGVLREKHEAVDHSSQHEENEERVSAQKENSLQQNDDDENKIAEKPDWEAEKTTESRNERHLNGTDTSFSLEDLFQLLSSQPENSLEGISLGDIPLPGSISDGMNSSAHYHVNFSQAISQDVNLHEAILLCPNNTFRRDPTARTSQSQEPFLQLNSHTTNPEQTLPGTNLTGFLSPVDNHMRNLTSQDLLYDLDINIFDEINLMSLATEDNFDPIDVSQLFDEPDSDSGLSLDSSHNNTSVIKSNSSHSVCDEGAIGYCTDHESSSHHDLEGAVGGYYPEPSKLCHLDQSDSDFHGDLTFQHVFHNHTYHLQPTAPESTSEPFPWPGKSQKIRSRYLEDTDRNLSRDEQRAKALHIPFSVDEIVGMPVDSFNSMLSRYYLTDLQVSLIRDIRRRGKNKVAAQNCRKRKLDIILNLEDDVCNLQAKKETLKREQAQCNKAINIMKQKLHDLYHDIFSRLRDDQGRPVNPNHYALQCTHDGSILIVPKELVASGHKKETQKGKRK

Molecule	Ki (ATF4) [nM]	Kd (ATF4 (human) [1])	Kd (ATF5 (human))	Kd (ATF2 (human)) [nM]	Kd (ATF4 (human) [2]) [nM]	Kd (NFE2L1 [3]) [µM]	Kd (MAFB) [µM]	Kd (ATF6B) [nM]	Kd (NFE2L3 (human)) [nM]	Kd (NFE2 (human) [6]) [µM]	Kd (MAFF (human)) [nM]	Kd (ATF4 (human) [7]) [nM]	Kd (NFE2 (human) [8]) [nM]	Kd (NFE2L1 [9]) [µM]	Kd [4]	Kd [5] [nM]
NQIKTLRTRLSKLRKDNLQLEKDIANLERKAKDLRAEKEQLEYEL [ATF4-d1]	48	–	–	–	–	–	–	–	–	–	–	–	–	–	–	–
ATF4-d1 labeled at the C-terminus (designed binder, also: C59 label by assay: Rhodamine Red C2-maleimide or fluorescein-5-maleimide, solubility linker after the His6 tag; added to the C-terminus for labeling; one molecule for the rhodamine- and the fluorescein-labelled form; the assay tells which label stood there; also called ATF4-d1-Rhodamine; ATF4-d1-FITC; source: E. coli RP3098, purified (Ni-NTA under denaturing conditions, reverse-phase HPLC)) GESKEYKKGSGSNQIKTLRTRLSKLRKDNLQLEKDIANLERKAKDLRAEKEQLEYELGC	–	11.3 nM and 9.9 nM and 6.8 nM	> 5000 nM	1000	1	> 5	> 5	1000	1000	> 5	623	1	2920	–	1820 nM and 1110 nM and 2520 nM	1

Now from value to molecule, other results behind:

Ki (ATF4) [nM]	Kd (ATF4 (human) [1])	Kd (ATF5 (human))	Kd (ATF2 (human)) [nM]	Kd (ATF4 (human) [2]) [nM]	Kd (NFE2L1 [3]) [µM]	Kd (MAFB) [µM]	Kd (ATF6B) [nM]	Kd (NFE2L3 (human)) [nM]	Kd (NFE2 (human) [6]) [µM]	Kd (MAFF (human)) [nM]	Kd (ATF4 (human) [7]) [nM]	Kd (NFE2 (human) [8]) [nM]	Kd (NFE2L1 [9]) [µM]	Molecule	Kd [4]	Kd [5] [nM]
6	–	–	–	–	–	–	–	–	–	–	–	–	–	KRIAYLRQRIAELRNENHVLESRIQRMEKEKDALQQDRDHLEYEL [ATF5-d1]	–	–
–	4.8 nM and 4 nM and 6 nM	1.1 nM and 1.2 nM and 1 nM	> 5000	1	> 5	–	–	–	> 5	> 5000	1	> 5000	> 5	ATF5-d1 labeled at the C-terminus (designed binder, not fully specified) GESKEYKKGSGSKRIAYLRQRIAELRNENHVLESRIQRMEKEKDALQQDRDHLEYELGC(Rhodamine Red C2‑maleimide)	–	–
